{
  "source": "paper PMC3662644",
  "about": "“Genome wide analysis of the complete GlnR nitrogen-response regulon in Mycobacterium smegmatis”",
  "data": [
    {"molecular_target": "T1, His-GlnR (Mycobacterium smegmatis (mc2 155?)) (UniProt A0R4C4)", "T1 sequence": "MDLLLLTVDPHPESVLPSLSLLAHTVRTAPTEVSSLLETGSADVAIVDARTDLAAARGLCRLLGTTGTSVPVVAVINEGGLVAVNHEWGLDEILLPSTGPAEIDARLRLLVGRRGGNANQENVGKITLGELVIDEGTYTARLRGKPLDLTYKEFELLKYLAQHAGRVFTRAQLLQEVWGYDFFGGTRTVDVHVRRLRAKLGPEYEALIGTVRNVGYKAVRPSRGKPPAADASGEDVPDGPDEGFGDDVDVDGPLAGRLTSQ", "assay": "EMSA", "details": "EMSA: 0.4 ng DIG-labelled DNA, 0-0.9 ug His-GlnR, 0.5 ug poly d(A-T), 25 mM Hepes pH 7.9, 150 mM NaCl, 2.5 mM MgCl2, 37 C, 15 min", "values": [
      {"molecule": "AACGGTGTGCTTCCTCCGCTGTAGGTGGATCACCGCGTGAAGCGGGTGACCGGTGCAGGGTCGGCGCAACTTACTGCGCTTGGAAAATGCTCGCGCAGGAACGTTTCGGTGGATCCCGTCGGCAATGTCGGTGACGTTAACTCTGCACGGCCCCGCGTTACGTTGTGGTGACCTGACGCAACGGATTTCGTTGTGTGTCCGGTAG (double strand) [peak 22 MSMEG2526 promoter]", "binding": "binds"},
      {"molecule": "GAGTGTTTGCGGGGCGTTACAGCCGGCGTTGGCTGTGCAACGACCTGTGCTTTGTCGGCGGGAAACATGAGCGTAACAGTGATCGGGATTGCGTTCACTTTCCGGAAACGCAACGGCAGCACCGGCGAAACGCCGGCAACAGAATCTCATCGGGAGGCCGATCCGTCGGCGCACTTCCCAAGGAGGTTCACACAAA (double strand)", "binding": "binds"},
      {"molecule": "AAGCCGGATCCAGACGTGTGTTTCCGCGGCATCGGGCGACTGTGTGCTCGATGTTTAGACTTTACTGCTTGGTAACCTACGGAGCCGTAGGTTACGGTAGCGTAGGTAGACGAAAGGAGGGTTGCCAATGGCTGTTACCGACGTCCCGGCGTTCGCGCATCTGACCGAAGCCGATATCGAGAACCTGGGTATCGAGC (double strand) [peak 13 MSMEG1886 promoter]", "binding": "binds"},
      {"molecule": "AGCTTGCCTACGAGCTCGAGGAGGCGCGGCCCTGGGCGCGCATACAAGATGTCACCGCGACCAAGCAGCCGCGTAAGCGGGCCGCGAAGAAGGCCACGAAAACCACGGAGTAGGGCACAAACCGGCGTGGCGCGTGACATGACCCCGTAACCCGGGCCGTGTCCTGTTAACGAACTCGACACCGCGAACGGCTGCGGGTGAAACATCGGGCTCGCAGCATCCCTCATT (double strand) [peak 21 MSMEG2522 promoter]", "binding": "binds"},
      {"molecule": "GCGCTGCTGGTCATGGGTTTTCTCTCTGGCTAGGGGCGCTGCCGCCAGCTCTTACCTGTCAGATGACAGATAACAATGGGCGCGTGTCCTCGGCGTCACCCGAATGTTTCGTTCATGTAGCCGTCGGTAAGCATTCGGTTGCAGAACCCTCACCGCCCGTGGGCCTGTCACAATCGCCGGTATGCCCGCCCCCGACCTCGTGCAGCGCCACATCGACG (double strand) [peak 17 MSMEG2184 promoter]", "binding": "binds"},
      {"molecule": "GTACGGGTCGCGCACCTTGTCGGTGAGGATGAGGATCGCATCGACGATGCCCCAGATGAAGGCACCGATGCCACACGTCACCAGGCCCACGATCAGCTGCGCGATGCCGAGCCCGGTCTGCCCCAGATAGATCCGCCCGAACCCGACGAAACCGACCAGGCCGATCAACTGCAACAGGC (double strand) [MSMEG3224 promoter (negative control)]", "binding": "no binding"},
      {"molecule": "GACGCGTCCATTCGGTTGTCCTCCCCGTTGTCGACGGGCCCGAAGCTACCCACGCCATGTTGCGACGACGTTGCGGTTGCGTTCGAACCCGTTGACATCAGCCAGAATTGACGCACGCGTCGGACTACCAGCGGTAGTCGAGGAACTTCCCGTCGAAGGTCACCACCACCCGGTCCCCGTCTGGATCGGGACGACGCTGGATGTCCACCTTGAAGTTGATGGCGCTCATG (double strand) [peak 42 MSMEG5358 promoter]", "binding": "binds"}
    ]},
    {"molecular_target": "T2, His-GlnR (Mycobacterium smegmatis, UniProt A0R4C4 1-261)", "T2 sequence": "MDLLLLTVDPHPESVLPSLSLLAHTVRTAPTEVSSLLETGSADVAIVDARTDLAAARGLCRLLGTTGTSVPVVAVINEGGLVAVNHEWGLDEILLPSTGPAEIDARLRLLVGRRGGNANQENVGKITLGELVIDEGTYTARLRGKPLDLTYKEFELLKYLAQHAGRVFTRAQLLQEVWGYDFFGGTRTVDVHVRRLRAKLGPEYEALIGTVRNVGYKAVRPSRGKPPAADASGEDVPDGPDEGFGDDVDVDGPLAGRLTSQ", "assay": "EMSA; EMSA: 0.4 ng DIG-labelled DNA, 0-0.9 ug His-GlnR, 0.5 ug poly d(A-T), 25 mM Hepes pH 7.9, 150 mM NaCl, 2.5 mM MgCl2, 37 C, 15 min", "details": "protein: recombinant; tags: N-terminal His6 (pET28b); chain copies: 2; label: DIG 3'-end; blunt", "values": [
      {"molecule": "Peak 24 GG (dsDNA) DNA 1: TCATGTCGAGGTTAGGTTGTTCGTCGGACACAGACATT DNA 2: AATGTCTGTGTCCGACGAACAACCTAACCTCGACATGA", "binding result": "no binding"},
      {"molecule": "Peak 24 G (dsDNA) DNA 1: TCATGTCGAGGTTAGTTTGTTCGTCGCACACAGACATT DNA 2: AATGTCTGTGTGCGACGAACAAACTAACCTCGACATGA", "binding result": "no binding"},
      {"molecule": "Peak 2 GG (dsDNA) DNA 1: GCAATCGCGGGGTAGGGCCGTGGAAGGAGAGCCTGCCT DNA 2: AGGCAGGCTCTCCTTCCACGGCCCTACCCCGCGATTGC", "binding result": "no binding"},
      {"molecule": "Peak 2 G (dsDNA) DNA 1: GCAATCGCGGGGTAGCGCCGTGGAAGCAGAGCCTGCCT DNA 2: AGGCAGGCTCTGCTTCCACGGCGCTACCCCGCGATTGC", "binding result": "no binding"}
    ]}
  ]
}
